The data set is described as follows: yeast display, Sf9 membrane polyspecificity reagent, FACS + sequencing; frameworks hold sequencing errors. Summed up:
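Sorting gates, low and high (top ~1%), were placed on anti-HA fluorescence to track expression and on streptavidin fluorescence to track reagent binding. A clone's polyreactivity label is taken from the gate it came out of. The reagent was 10% biotinylated, detergent-solubilized Sf9 membrane, applied for 1 hour at 4 °C to galactose-induced yeast display cells.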
“QVQLVESGGGLLQAGGSLRLSCAASGFTIVCYAMGWYRQAPGKERELVAAISSGGSTYYADSVKGRFTISRDNAKNTVFLLMNSLKPEDTAVYYCAADREYYDEYAGYEYWGQGTQVTVSS”: the “polyreactivity (PSR sort gate)” value is “low polyreactivity”.

Take “QVQLVESGGGLLQAGGSLRLSCAASGIIFHYNAMGWYRQAPWKQRELVAAITSTDNTNYADSVKGRFTISRDNAKNTVYLQMNSLIAEATAVYYCNASVGRDSAYDYWGQGTQVTVSS”: the “polyreactivity (PSR sort gate)” value is recorded as “low polyreactivity”.

Take “QVQLVESGGGLLQAGGSLRLSCAASGIIYRPYAMGWYRQAPGKERELVAAITGSGVSTYYADSVKGRFTISRDNAKNTVYLQMNSLKPEDTAVYYCAKRYNRGYHRYDSWGQGTQVTVSS”: the “polyreactivity (PSR sort gate)” value is reported as “low polyreactivity”.

Turning to “QVQLVESGGGLLQAGGSLRLSCAASGRIFGQYAMGWYRQAPGKEREFVAGISTTGGSTYYADSVKGRFTISRDNAKNTVYLQMNSLKPEDTAVYYCAVRINWSRWYHYYTYNYWGQGTQVTGSS”, the “polyreactivity (PSR sort gate)” value was “high polyreactivity”.

On to “QVQLVESGGGLLQAGGSLRLSCAASGRIFTLYDMGWYRQAPGKERELDAAISNSAGSTYYADSVKGRFTISLDNAKNTVYLQMNSLKTEDTAGYYCARSFSYWGYRSVYYWGQGTQVTVSS”, for which the “polyreactivity (PSR sort gate)” value is “high polyreactivity”.

On to “QVQLVESGGGLLQAGGSLRLSCAASGRIFVHYVMGWYRQAPGKERELVAAINVSGGGTYYADSVKGRFTISRDNAKNTVYLQMNCLKPEDTAVFYCAAGTTQDWPFSSRSYFGHDSWGQGTQVTVSS”, for which the “polyreactivity (PSR sort gate)” value was “low polyreactivity”.

In the case of “QVQLVESGGGLLQAGGSLRLSCAASGRTFYKNAMGWYRHAPRKERELVAAITSGGSTNYADSVKGRFTISRDNAKNSVYLQMNSLKSEDTAVSACAAQLFPYYRSRYSYINNYDYSGQGTQVTVSS”, the “polyreactivity (PSR sort gate)” value was “high polyreactivity”.

For the sequence “QVQLVESGGGLLQAGGSLRLSCAASGRTLVSYAMGWYRQAPGKERELVATISWSGGSTYYADSVKGRFTISRDTAKNTVYLQIYSLKPEDTAGYDCNRSLTGYDELGYPVPYTYDYWGQGTQVTVSS”, the “polyreactivity (PSR sort gate)” value is recorded as “low polyreactivity”.

“QVQLVESGGGLLQAGGSLRLSCAASGSIFERNAIGWYRQAPGKERELVAVITRSGGSTYYADSVKGRFTISRDNAKNTVYLQMNSLKREDTAVYYCNARTAYFYGLDYWGQGTQVTVSS”: the “polyreactivity (PSR sort gate)” value is on record as “high polyreactivity”.

With “QVQLVESGGGLLQAGGSLRLSCAASGSIFLYYAMGWYRQAPGKERELVAGISRGGGTTYYADSVKGRFTISRDNAKNTVYLQMNSLKPEDTAFYYCATVFWRSKHEYWGQGTQVTVSW”, the “polyreactivity (PSR sort gate)” value is “high polyreactivity”.

Regarding “QVQLVESGGGLLQAGGSLRLSCAASGSISAQYALGWYRQAPGKERELVAAIDFSGGSTYYADSVKGRFTISRDNAKNTVYLQRNSLKPEDTAVYYCAARGDGDPSTDITLVEYDYWGQGTQVTVSS”, the “polyreactivity (PSR sort gate)” value is recorded as “low polyreactivity”.

As to “QVQLVESGGGLLQAGGSLRLSCAASGSTFDTYDMGWYRQAPGKERELVAARNSGGDTNYADSVKGRFTISRDNAKNTVYLQMNSLKPEDTAVYYCAVVTYSYPNWYGYWGPGTQVTVSS”, the “polyreactivity (PSR sort gate)” value is reported as “high polyreactivity”.

As for “QVQLVESGGGLLQAGGSLRLSCAATGITFDRYAMGWYRQAPGKERELVAAITSGGRTYYADSVKGRFTISRDNAKNTVYLQMNSLKPEDTAVYYCNATRGQYVGRYYYWGQGTQVTVSS”, the “polyreactivity (PSR sort gate)” value is reported as “high polyreactivity”.

Take “QVQLVESGGGLLQAGGSLRLSCADSGYTFRAYALGWYRQAPGKERELVAAISRGGSTNYADSVKGRFTISRDNAKNTVYLQMYSLKPEDTAVYYCNTAYIVWYSSSYGAYYSGAFDYWGQGTLVTVSS”: the “polyreactivity (PSR sort gate)” value is “high polyreactivity”.

In the case of “QVQLVESGGGLLQAGGSLRLSCSASGSTFDDYAMGWYRQAPGKERELVAAIRWSGGSTYYADSVKGRFTISRDNAKNTVYLQMKSLKPEDTAVYYCNADGRRGRYDYWGQGTQVTVSS”, the “polyreactivity (PSR sort gate)” value is “low polyreactivity”.

Consider “QVQLVESGGGLLQAGGSLRLSFAASGSIVGPYGRGWYRQAPGKERELVAAISTVGGSTYYADSVKGRFTISRDNAKNTVYLQMNSLTPEDTAGYYCAKVPRYIELSRQATHSYDYWGHGTQVTVSS”, for which the “polyreactivity (PSR sort gate)” value is “low polyreactivity”.

For the sequence “QVQLVESGGGLLQAGGSLRLSSAASGIIFYAYAMGWYRQAPGKERELVAAITFSAVSTYYADSVKGRFTISRDNAKNTVYLQMNCLKPEDTAVYYCAAEAYKHGVWDYDYWGQGTQVTVSA”, the “polyreactivity (PSR sort gate)” value is reported as “low polyreactivity”.

For the sequence “QVQLVESGGGLLQAGRSLRLSCAASGSTFRAYTMGWYRQAPGIERELVAAINSGGSTYYADSVKGRFTISRDNAKNTVYLQMNSLKAEDTAVYYCNRRFYRAVKYGYWGQGTQVTVSS”, the “polyreactivity (PSR sort gate)” value was “low polyreactivity”.

Consider “QVQLVESGGGLLQARGSLRLTCAASGIIFIKYAMGWYRQPPGKDRELVASSTSGGSTHYADSVKGRFTISRDNAKNTVYLQMNSLIPEETSVYYCNADILRHDAYFKDRYQAGSYWGLGTQVTVSS”, for which the “polyreactivity (PSR sort gate)” value is on record as “low polyreactivity”.

As for “QVQLVESGGGLVEAGGSLRLSCAASGINFWVNAMGWYRQAPGKERELVAAIRSDGSTKYADSVKGRFSSSRDNAKNTVYLQMNSLKPEDTAIYYCAKRDFSYPWLRDFYYWGQGTQVTVSS”, the “polyreactivity (PSR sort gate)” value is on record as “low polyreactivity”.

On to “QVQLVESGGGLVEAGGSLRLSCAASGRIFKYYAMGWYRQAPGKERELVAAISRGGSTYYADSVKGRFTISRDNAKNTVYLQMNSLKPEDTAVYFCAAVNGWRRVLRFDYWGQGTQVTVSS”, for which the “polyreactivity (PSR sort gate)” value was “high polyreactivity”.

For the sequence “QVQLVESGGGLVEAGGSLRLSCAASGRISQSNAMGWYRQAPGKESELVAAISWRGGSTYYADSVKGRFTISRDNAKNTVYLEMNSLKPEDTAVYYCGAKSWYAFYYRHPYDYWGQGTQVTVSS”, the “polyreactivity (PSR sort gate)” value is “high polyreactivity”.

Take “QVQLVESGGGLVEAGGSLRLSCAASGRTFFKYTMGWYRQAPGKERELVSAITGSGASTYYADSVKGRFTISRDNAKNTVYLQMNSLKPEDTAVYYCAAVLTVKKGDKYGYWGQGTQVTVSS”: the “polyreactivity (PSR sort gate)” value is recorded as “high polyreactivity”.

Consider “QVQLVESGGGLVEAGGSLRLSCAASGSILIYVMGWYRQAPGKERDLFASITFSGGSTYYADSVKGRFTISRDNAKNSVYLQMYRLKPEVTAVYYCAAVPLWDYKFFYYLLYDYWGQGTQVTVSS”, for which the “polyreactivity (PSR sort gate)” value is on record as “low polyreactivity”.

For the sequence “QVQLVESGGGLVEAGGSLRLSCAASGSTFRRYAMGWYRQAPVKERELVAAISTRGGSTYYADSVKGRFTISRDNAKNTVYLQMNSLKPEDTEVYYCAADPYYTLGYYYWGQGTQVTVSS”, the “polyreactivity (PSR sort gate)” value is listed as “high polyreactivity”.

As for “QVQLVESGGGLVEAGGSLRLSCAASGSTINYNAMGWYRQAPGKERELVAAIDSGVSTNYADSVNGRFTISRDNAKNTVYLQMNSLKPEDTAVYYCAVGGAGSDDYWGQRTQVTVSS”, the “polyreactivity (PSR sort gate)” value is reported as “low polyreactivity”.

Regarding “QVQLVESGGGLVEAGGSLSLSCAASGSTFYKYSMGLYRQAPGKESELVAAITGSGVSTYYADSVKGRFTMSRDNAKNTVYLQMNSLKPDDTAVYYCNAESRSRPYTSSYDYWGQGTQVTVSS”, the “polyreactivity (PSR sort gate)” value is “high polyreactivity”.

With “QVQLVESGGGLVEPGGSLRLSFASSGRTYQFYVMGWSRQAPGKERELVASIRSGGSTNYADSVKGRFTISRDNAKNTVYLLMNSLKPEDTALYYCAARVASPYYRYVYWGKGTQVTVSS”, the “polyreactivity (PSR sort gate)” value is reported as “low polyreactivity”.

Take “QVQLVESGGGLVHAGCSLRLSCDASGRIFKNYAMGWYRQAPGKERELVAAISWSGGRTYYADSVKGRFTISRDYAKNTVYLQMHRLKPEDTEVYYCATAARRGPTSIEPFGYGSWGQGTQVTVSS”: the “polyreactivity (PSR sort gate)” value was “high polyreactivity”.

In the case of “QVQLVESGGGLVHAGGCLRLSFAASGFIFVVNPMGWYRPAPGKERELVAAINTSRGSTSYADSVKGRFTISRDNAKNTVYLQMNSVKPEDNAVYYCARDVWEKYRQSWGYVPLQGYDYCGQGTQVTVSS”, the “polyreactivity (PSR sort gate)” value was “low polyreactivity”.

On to “QVQLVESGGGLVHAGGPLRLSCAASGGIFFSYAMGWYRQAPGKERELVAAIRTNGGTTYYADSVKGRFTISRDNAKNTVYLHMNSLKPEETAVYDCAALPGGYYDRGEYDYWGQGTQVTVSS”, for which the “polyreactivity (PSR sort gate)” value was “low polyreactivity”.

As to “QVQLVESGGGLVHAGGRLRLSCAASGRTFVSYVMGWYRQAPGKERELVAAISGNGGRTYYADSVKGRFTISRDNAKNTVYLQMNSLKPEDTAVYYCAAELFVSYFDVLMYYWGQGTQVTVSS”, the “polyreactivity (PSR sort gate)” value is listed as “high polyreactivity”.

On to “QVQLVESGGGLVHAGGSIRLSCAASGSIFRLYAMGWYRQAPGKERELVATISQRGGRTYYADSVKGRFTISRDNAKNTVYLQMNILKPEVTAVYYCNADHYYPWLDYWGLGTQVTVSS”, for which the “polyreactivity (PSR sort gate)” value is “high polyreactivity”.

As for “QVQLVESGGGLVHAGGSLRISCAASGRTFWVYAMGWYRKAPGKERELVAAISWSGGRTYYADSVKGRFTISRDNAKNTVYLQMNSLKPEDTAVYYCAATTGVRSRRYYYWGQGTQVTVSS”, the “polyreactivity (PSR sort gate)” value is on record as “low polyreactivity”.

With “QVQLVESGGGLVHAGGSLRLSCAAAGFTFTYYTMGWYRKAPGKERELVAAITENGGSTYYADSVKWRFTISRDNAKNTVYLQMKSLKPEDPAVYYCNARVWDYGGHGYDYWGQGTQVTVSS”, the “polyreactivity (PSR sort gate)” value is listed as “low polyreactivity”.

Regarding “QVQLVESGGGLVHAGGSLRLSCAASGFIFFSNAMGWYRQAPGKERELVATISTSSGSTYADSVKGRFTNSRDNAKNTVYLQMNSLKPEDTAVYYCAADTQGYDYDYWGQGTQVTVSS”, the “polyreactivity (PSR sort gate)” value is given as “low polyreactivity”.

On to “QVQLVESGGGLVHAGGSLRLSCAASGFIFPYYAMGWYRQAPGKERELVAAITSGGSTNYADSVKGRFTISRDNAKNTVYLQMNSLKPEDTAVYYCAKRLKRWSVYGRYDYWGQGTQVTVSS”, for which the “polyreactivity (PSR sort gate)” value is listed as “high polyreactivity”.

For “QVQLVESGGGLVHAGGSLRLSCAASGFIFYYYTMGWYRQAPGKEREFVAAISSSGTITYYADSVKGRFTISRDNAKNTVYLQMNSLKPEDTAVYYCNAELYYPYEFWRFSGYDYWGQGTQVTVSS”, the “polyreactivity (PSR sort gate)” value is on record as “low polyreactivity”.

Take “QVQLVESGGGLVHAGGSLRLSCAASGFSFNTYAMGWYRQAPGKERELVADISSGGSTNYADSVKGRFTISRDNAKNTVFLQMNSLKPEDTAVYYCSADYYFLDWYDYWGQGTQVSVSS”: the “polyreactivity (PSR sort gate)” value is on record as “low polyreactivity”.

Take “QVQLVESGGGLVHAGGSLRLSCAASGFTFYYNDMGWYRQAPGKERELVAAIRWSGGNTYYADSVKGRFKISRDNAKNTVYLQMNSLKPEDTAVYYCSAGTQWYSQVYIYYYWGQGTQVTVSS”: the “polyreactivity (PSR sort gate)” value is recorded as “low polyreactivity”.

The values above are taken from the nanobody polyreactivity screen of Harvey et al. (2022).
